Data reported in the FLAb antibody collection.

B1: unnamed (protein)
chain 1: QVQLVESGGGVVQPGRSLRLSCTASGFTFKNYAMHWVRQAPAKGLEWVATISYDGRNIQYADSVKGRFTFSRDNSQDTLYLQLNSLRPEDTAVYYCARPVRSRWLQLGLEDAFHIWGQGTMVTVSS
chain 2: AIRMTQSPSSFSASTGDRVTITCRASQDIRNYVAWYQQKSGKAPKFLIYAASTLQSGVPSRFSGSGSGTDFTLTINSLQSEDFATYYCQQYYNSPPTFGQGTRVEIT
B2: unnamed (protein)
chain 1: EVQLLESGGGLVQPGGSLRLSCAASGFTFSSYIMMWVRQAPGKGLEWVSSIYPSGGITFYADTVKGRFTISRDNSKNTLYLQMNSLRAEDTAVYYCARIKLGTVTTVDYWGQGTLVTVSS
chain 2: QSALTQPASVSGSPGQSITISCTGTSSDVGGYNYVSWYQQHPGKAPKLMIYDVSNRPSGVSNRFSGSKSGNTASLTISGLQAEDEADYYCSSYTSSSTRVFGTGTKVTVL
B3: unnamed (protein)
chain 1: EVQLVQSGGGLVKPGGSLRLSCAASGFTFSSFAMHWVRQAPGKGLEWISVIDTRGATYYADSVKGRFTISRDNAKNSLYLQMNSLRAEDTAVYYCARLGNFYYGMDVWGQGTTVTVSS
chain 2: EIVLTQSPGTLSVSPGERATLSCRASQSIGSSLHWYQQKPGQAPRLLIKYASQSLSGIPDRFSGSGSGTDFTLTISRLEPEDFAVYYCHQSSRLPHTFGQGTKVEIK
B4: unnamed (protein)
chain 1: EVQLVQSGAEVKKPGASVKVSCKASGYTFTDYNMHWVRQAPGQGLEWMGEINPNSGGAGYNQKFKGRVTMTTDTSTSTAYMELRSLRSDDTAVYYCARLGYDDIYDDWYFDVWGQGTTVTVSS
chain 2: DIQMTQSPSSLSASVGDRVTITCRASQDISNYLNWYQQKPGKAPKLLIYYTSRLLSGVPSRFSGSGSGTDFTLTISSLQPEDFATYYCQQGDTLPYTFGGGTKVEIK
B5: unnamed (protein)
chain 1: EVQLVESGGGLVQPGGSLRLSCAASGYTFSSYWIEWVRQAPGKGLEWIGEILPGGGDTNYNEIFKGRATFSADTSKNTAYLQMNSLRAEDTAVYYCTRRVPIRLDYWGQGTLVTVSS
chain 2: DIQLTQSPSSLSASVGDRVTITCKASQSVDYEGDSFLNWYQQKPGKAPKLLIYAASNLESGVPSRFSGSGSGTDFTLTISSLQPEDFATYYCQQSNEDPLTFGQGTKVEIK
B6: unnamed (protein)
chain 1: EVQLVESGGGLVQPGGSLRLSCAASGYDFTHYGMNWVRQAPGKGLEWVGWINTYTGEPTYAADFKRRFTFSLDTSKSTAYLQMNSLRAEDTAVYYCAKYPYYYGTSHWYFDVWGQGTLVTVSS
chain 2: DIQLTQSPSSLSASVGDRVTITCSASQDISNYLNWYQQKPGKAPKVLIYFTSSLHSGVPSRFSGSGSGTDFTLTISSLQPEDFATYYCQQYSTVPWTFGQGTKVEIK
B7: unnamed (protein)
chain 1: QVQLVQSGAEVKKPGASVKVSCKASGHIFSNYWIQWVRQAPGQGLEWMGEILPGSGHTEYTENFKDRVTMTRDTSTSTVYMELSSLRSEDTAVYYCARYFFGSSPNWYFDVWGQGTLVTVSS
chain 2: DIQMTQSPSSLSASVGDRVTITCGASENIYGALNWYQQKPGKAPKLLIYGATNLADGVPSRFSGSGSGTDFTLTISSLQPEDFATYYCQNVLNTPLTFGQGTKVEIK
B8: unnamed (protein)
chain 1: EVQLVESGGGLVQPGGSLRLSCAASGFTFTDYTMDWVRQAPGKGLEWVADVNPNSGGSIYNQRFKGRFTLSVDRSKNTLYLQMNSLRAEDTAVYYCARNLGPSFYFDYWGQGTLVTVSS
chain 2: DIQMTQSPSSLSASVGDRVTITCKASQDVSIGVAWYQQKPGKAPKLLIYSASYRYTGVPSRFSGSGSGTDFTLTISSLQPEDFATYYCQQYYIYPYTFGQGTKVEIK
B9: unnamed (protein)
chain 1: QVQLVQSGSELKKPGASVKVSCKASGYTFTNYGMNWVRQAPGQGLEWMGWINTYTGEPTYADDFTGRFVFSLDTSVSTAYLQISSLKAEDTAVYYCARNPINYYGINYEGYVMDYWGQGTLVTVSS
chain 2: not shown
B10: unnamed (protein)
chain 1: EVQLVESGGGLVQPGGSLRLSCAASGFTFSNYGMSWVRQAPGKGLEWVASISSGGGSTYYPDNVKGRFTISRDDAKNSLYLQMNSLRAEDTAVYYCARGGAGIDYWGQGTLVTVSS
chain 2: DIQMTQSPSSLSASVGDRVTITCKSIQTLLYSSNQKNYLAWFQQKPGKAPKLLIYWASIRKSGVPSRFSGSGSGTDFTLTISSLQPEDLATYYCQQYYSYPLTFGGGTKLEIK
B11: unnamed (protein)
chain 1: QVQLVQSGAEVKKPGASVKVSCKASGYIFSNYWIQWVRQAPGQGLEWMGEILPGSGSTEYAQKFQGRVTMTADTSTSTAYMELSSLRSEDTAVYYCARYFFGSSPNWYFVWGQGT
chain 2: DIQMTQSPSLSASVGDRVTITCGASENIYGALNWYQRKPGKAPKLLIYGATNLADGVPSRFSGSGSGTDYTLTISSLQPEDFATYYCQNVLNTPLTFGQGTKVEIK
B12: unnamed (protein)
chain 1: QVQLQQPGAELVKPGASVKMSCKASGYTFTSYNMHWVKQTPGRGLEWIGAIYPGNGDTSYNQKFKGKATLTADKSSSTAYMQLSSLTSEDSAVYYCARSTYYGGDWYFNVWGAGTTVTVSA
chain 2: QIVLSQSPAILSASPGEKVTMTCRASSSVSYIHWFQQKPGSSPKPWIYATSNLASGVPVRFSGSGSGTSYSLTISRVEAEDAATYYCQQWTSNPPTFGGGTKLEIK
B13: unnamed (protein)
chain 1: QVQLVQSGAEVKKPGSSVKVSCKASGYTFTDQTIHWMRQAPGQGLEWIGYIYPRDDSPKYNENFKGKVTITADKSTSTAYMELSSLRSEDTAVYYCAIPDRSGYAWFIYWGQGTLVTVSS
chain 2: DIQMTQSPSSLSASVGDRVTITCKASRDVAIAVAWYQQKPGKVPKLLIYWASTRHTGVPSRFSGSGSRTDFTLTISSLQPEDVADYFCHQYSSYPFTFGSGTKLEIK
B14: unnamed (protein)
chain 1: QVQLQQSGTVLARPGASVKMSCKASGYSFTRYWMHWIKQRPGQGLEWIGAIYPGNSDTSYNQKFEGKAKLTAVTSASTAYMELSSLTHEDSAVYYCSRDYGYYFDFWGQGTTLTVSS
chain 2: QIVSTQSPAIMSASPGEKVTMTCSASSSRSYMQWYQQKPGTSPKRWIYDTSKLASGVPARFSGSGSGTSYSLTISSMEAEDAATYYCHQRSSYTFGGGTKLEIK
B15: unnamed (protein)
chain 1: EVQLVESGGGLVQPGGSLRLSCAASGFTFSSYWMSWVRQAPGKGLEWVAYIKQDGNEKYYVDSVKGRFTISRDNAKNSLYLQMNSLRAEDTAVYYCAREGILWFGDLPTFWGQGTLVTVSS
chain 2: DIQMTQSPSSLSASVGDRVTITCRASQGISNWLAWYQQKPEKAPKSLIYAASSLQSGVPSRFSGSGSGTDFTLTISSLQPEDFATYYCQQYDSYPRTFGQGTKVEIK
B16: unnamed (protein)
chain 1: QVQLQQSGAELVKPGASVKLSCKASGYTFTSYDINWVRQRPEQGLEWIGWIFPGDGSTKYNEKFKGKATLTTDKSSSTAYMQLSRLTSEDSAVYFCAREDYYDNSYYFDYWGQGTTLTVSS
chain 2: DIQMTQTTSSLSASLGDRVTISCRASQDISNYLNWYQQKPDGTVKLLIYYTSRLHSGVPSRFSGSGSGTDYSLTISNLEQEDIATYFCQQGNTLPWTFGGGTKLEIK
B17: unnamed (protein)
chain 1: QVQLVQSGAEVKKPGASVKVSCKASGYYTEAYYIHWVRQAPGQGLEWMGRIDPATGNTKYAPRLQDRVTMTRDTSTSTVYMELSSLRSEDTAVYYCASLYSLPVYWGQGTTVTVSS
chain 2: DVVMTQSPLSLPVTLGQPASISCKSSQSLLYSDAKTYLNWFQQRPGQSPRRLIYQISRLDPGVPDRFSGSGSGTDFTLKISRVEAEDVGVYYCLQGTHYPVLFGQGTRLEIK
B18: unnamed (protein)
chain 1: EVQLVESGGGLVQPGGSLRLSCAVSGLSLTSNSVNWIRQAPGKGLEWVGLIWSNGDTDYNSAIKSRFTISRDTSKSTVYLQMNSLRAEDTAVYYCAREYYGYFDYWGQGTLVTVSS
chain 2: DIQMTQSPSSLSASVGDRVTITCLASEGISSYLAWYQQKPGKAPKLLIYGANSLQTGVPSRFSGSGSATDYTLTISSLQPEDFATYYCQQSYKFPNTFGQGTKVEVK
B19: unnamed (protein)
chain 1: EVQLVQSGGGLVKPGGSLRLSCAASGFTFSSYSMNWVRQAPGKGLEWVSSISSSSSYIYYADSVKGRFTISRDNAKNSLYLQMNSLRAEDTAVYYCARVTDAFDIWGQGTMVTVSS
chain 2: DIQMTQSPSSVSASIGDRVTITCRASQGIDNWLGWYQQKPGKAPKLLIYDASNLDTGVPSRFSGSGSGTYFTLTISSLQAEDFAVYFCQQAKAFPPTFGGGTKVDIK
B20: unnamed (protein)
chain 1: EVQLVESGGGLVQPGGSLRLSCAASGYEFSRSWMNWVRQAPGKGLEWVGRIYPGDGDTNYSGKFKGRFTISADTSKNTAYLQMNSLRAEDTAVYYCARDGSSWDWYFDVWGQGTLVTVSS
chain 2: DIQMTQSPSSLSASVGDRVTITCRSSQSIVHSVGNTFLEWYQQKPGKAPKLLIYKVSNRFSGVPSRFSGSGSGTDFTLTISSLQPEDFATYYCFQGSQFPYTFGQGTKVEIK

Test: patients with anti-drug antibodies; higher = more immunogenic

Protein | patients with anti-drug antibodies
B1 | 0%
B2 | 5%
B3 | 0%
B4 | 18.1%
B5 | 2.6%
B6 | 3.5%
B7 | 0.2%
B8 | 2.8%
B9 | 9.4%
B10 | 0%
B11 | 0%
B12 | 11%
B13 | 24%
B14 | 1.5%
B15 | 0%
B16 | 85%
B17 | 0%
B18 | 5%
B19 | 4.1%
B20 | 1.4%
